Reference: PMC9630439
Several values for one entry are separate records, joined by “and”; a condition that tells them apart may be missing. Equal values may be shown once.

Key:
[1] = molecular target: GPa3b17 TCR complex expressed without CD3-ζ (TCR-αβ/CD3-δγε2) (human) (UniProt P07766); assay: flow cytometry on cells; CHO cells transduced with lentivirus combinations, stained with Alexa Fluor 647-labelled gp100/HLA-A2, 30 min at 4 °C in the dark
[2] = molecular target: fully assembled GPa3b17 TCR (TCRαβ/CD3δγε2ζ2 complex, CD3 cytosolic domains truncated, CD3-δ tagged with GFP2) (human) (UniProt P07766); assay: as above

- median fluorescence intensity following pMHC staining [1]: 116000
- median fluorescence intensity following pMHC staining [2]: 135000 and 144000
Substance: gp100/HLA-A2 (soluble gp100 peptide / HLA-A*02:01 / β2-microglobulin monomer with C-terminal HPC-4 epitope) (from UniProt P61769 22-119) (peptide-MHC)
